We go through nine molecules from patent US20240254227A1 (Alector, published 2024).

One test has as its target T1, murine CD300A-Fc (mouse).
T1 construct: hIgG1-Fc fusion; the entry is the whole fusion chain; also called mCD300A; Mouse CD300A-Fc
Description: SPR (Carterra LSA), antibody immobilised, Fc fusion at 300 or 600 nM. On the procedure:
(§1) Binding of mouse anti-CD300LB IgG1 antibodies of the present disclosure to human and murine CD300 orthologs were evaluated by surface plasmon resonance (SPR) using a Carterra LSA instrument (Carterra, Salt Lake City, UT). […] A HC200M sensor chip (Carterra) was activated using the single channel flow cell with a 7-minute injection of a 1:1:1 mixture of 100 mM MES pH 5.5, 100 mM sulfo-NHS, 400 mM EDC (all reconstituted in MES pH 5.5; 100 μL of each mixed in vial immediately before running assay). After switching to the multi-channel array flow cell, the antibodies were injected over the activated chip in a 96-spot array for 10 minutes. The remaining unconjugated active groups on the chip were then blocked by injecting 1M Ethanolamine pH 8.5 (Carterra) for 7 minutes using the single channel flow cell. After priming with running buffer (HBS-TE, Carterra) with 0.5 mg/ml BSA (Sigma), the immobilized anti-CD300LB antibodies were tested for their ability to bind human and mouse recombinant CD300LB extracellular domains. Human CD300 family members and mouse CD300A were hIgG1-Fc fusions, while mouse CD300LB, mouse CD300C, mouse CD300D, and mouse CD300E were mouse IgG2a-Fc fusions (R&D Systems). Binding was assessed by injecting each analyte over the entire antibody array using the single channel flow cell. CD300 analytes were diluted to 300 nM or 600 nM in running buffer and injected in series without regeneration. Two or three buffer blanks were run between each mouse or human ortholog, respectively. Data were processed and analyzed using NextGenKIT high-throughput kinetics analysis software (Carterra).
(§2) Results of anti-CD300LB antibody binding to murine CD300 family members is provided below in Table 8.

The target in a further test is T2, murine CD300E-Fc (mouse).
T2 construct: mouse IgG2a-Fc fusion (R&D Systems); the entry is the whole fusion chain; also called mCD300E; Mouse CD300E-Fc
T2 chain: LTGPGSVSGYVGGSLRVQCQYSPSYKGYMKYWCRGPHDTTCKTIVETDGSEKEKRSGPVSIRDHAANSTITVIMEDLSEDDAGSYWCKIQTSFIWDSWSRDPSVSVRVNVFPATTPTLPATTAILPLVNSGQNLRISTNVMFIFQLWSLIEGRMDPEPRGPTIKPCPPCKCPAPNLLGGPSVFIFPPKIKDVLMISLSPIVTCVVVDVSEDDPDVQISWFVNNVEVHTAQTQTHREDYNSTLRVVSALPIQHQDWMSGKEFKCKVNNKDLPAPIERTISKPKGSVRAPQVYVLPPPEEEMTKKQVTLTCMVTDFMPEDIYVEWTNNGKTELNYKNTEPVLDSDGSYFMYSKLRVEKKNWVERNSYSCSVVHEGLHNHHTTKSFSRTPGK
The test is described as above. On the procedure:
as §1, §2

In another test the target is T3, murine CD300LB-Fc (mouse).
T3 construct: mouse IgG2a-Fc fusion (R&D Systems); the entry is the whole fusion chain; also called mCD300LB; Mouse CD300LB-Fc
T3 chain: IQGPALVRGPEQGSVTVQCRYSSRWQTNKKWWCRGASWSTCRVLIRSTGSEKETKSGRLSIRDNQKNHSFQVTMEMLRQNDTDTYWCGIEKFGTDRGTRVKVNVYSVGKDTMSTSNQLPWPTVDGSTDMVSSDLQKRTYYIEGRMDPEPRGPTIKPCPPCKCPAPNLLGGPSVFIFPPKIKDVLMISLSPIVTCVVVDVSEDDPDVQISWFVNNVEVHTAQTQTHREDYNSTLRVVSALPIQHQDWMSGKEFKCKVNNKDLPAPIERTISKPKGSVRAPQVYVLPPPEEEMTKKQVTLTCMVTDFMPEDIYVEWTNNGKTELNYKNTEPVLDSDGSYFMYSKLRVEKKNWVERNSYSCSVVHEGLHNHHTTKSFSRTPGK
The test is described as above. The method, then:
as §1, §2

Test [1] deals with T4, recombinant murine CD300LB overexpressed on BaF/3 cells (mouse, UniProt Q3U497 18-209).
T4 sequence: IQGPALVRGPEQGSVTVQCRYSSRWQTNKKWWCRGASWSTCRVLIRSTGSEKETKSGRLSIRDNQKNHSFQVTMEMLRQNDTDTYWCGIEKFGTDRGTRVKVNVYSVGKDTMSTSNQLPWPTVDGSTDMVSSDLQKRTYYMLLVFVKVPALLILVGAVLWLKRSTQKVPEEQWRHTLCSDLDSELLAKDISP
Description: cell-based or functional assay.

Test [2] has as its target T5, murine CD300LB on wild type mouse bone marrow macrophages (mouse, UniProt Q3U497 18-209).
T5 construct: Endogenous receptor on primary cells; also called mCD300LB; Wt BMM
T5 sequence: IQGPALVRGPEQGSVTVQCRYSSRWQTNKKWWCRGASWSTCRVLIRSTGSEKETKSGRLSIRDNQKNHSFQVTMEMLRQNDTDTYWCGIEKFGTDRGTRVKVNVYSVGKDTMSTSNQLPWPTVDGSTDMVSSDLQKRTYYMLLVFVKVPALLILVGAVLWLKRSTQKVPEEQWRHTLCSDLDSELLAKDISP
Put plainly: flow cytometry, wild type mouse bone marrow macrophages, 10 ug/mL, isotype subtracted. On the procedure: To further examine the specificity of the anti-CD300LB antibodies to muCD300LB, bone marrow macrophages (BMM) from wild type (WT) and CD300LB knockout mice (KO) were analyzed for antibody binding by flow cytometry. Bone marrow from these mice was harvested and plated into three 20 cm PETRI dishes in complete media containing 50 ng/mL murine M-CSF (Peprotech). Media was changed every three days until day 6, when cells were harvested. Cells were detached with PBS 3 mM EDTA, washed and counted and plated at 100,000 cells/well in a 96 well plate. Cells were incubated with murine Fc block (Clone 2.4G2, BD) then with 10 μg/mL anti-CD300LB antibodies for 30 minutes on ice. […] Cells were washed twice more with 150 μL FACS buffer then resuspended to 100 μL in FACS buffer analyzed using a BD Canto II flow cytometer to calculate the geometric MFI minus the gMFI of the isotype control. Dead cells were stained with live/dead staining kit (Invitrogen).
For orientation: A flow cytometer gives signals particle by particle.

Test [3] deals with T6, murine CD300LB stably expressed on Jurkat cells (mouse, UniProt Q3U497 18-209).
T6 construct: also called muCD300LB; mouse CD300LB
T6 sequence: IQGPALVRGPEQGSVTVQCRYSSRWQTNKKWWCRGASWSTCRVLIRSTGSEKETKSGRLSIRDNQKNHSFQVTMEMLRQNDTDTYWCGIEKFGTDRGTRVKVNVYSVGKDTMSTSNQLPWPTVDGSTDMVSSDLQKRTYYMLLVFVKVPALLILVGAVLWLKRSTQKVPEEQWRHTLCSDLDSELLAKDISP
Description: flow cytometry, stable Jurkat cells, supernatant or 10 ug/mL, isotype subtracted. On the procedure:
Purified anti-CD300LB antibodies of the present disclosure were also evaluated for species cross-reactivity to mouse and human CD300LB stably expressed in Jurkat cells (generation of which is described above). Cells were counted and labeled with 200 nM CFSE, 500 nM VioBlue, or a combination of the two to discriminate between human CD300LB, Parental cells and mouse CD300LB. Cells were washed thoroughly with PBS containing 2% fetal bovine serum then resuspended at a total of 240,000 cells per well. Hybridoma supernatants (100 L) or purified antibodies at 10 μg/mL were added and incubated for one hour before the cells were washed again and stained with an APC-labeled anti-human or anti-mouse secondary. Cells were then analyzed using a BD FACSCanto II. Antibodies were analyzed for binding to mouse or human CD300LB by FlowJo software by gating on live cells, then the APC gMFI calculated for each labeled population by subtraction of the gMFI of the appropriate isotype control.

T1 sequence (chain, as listed by the source limits assumed): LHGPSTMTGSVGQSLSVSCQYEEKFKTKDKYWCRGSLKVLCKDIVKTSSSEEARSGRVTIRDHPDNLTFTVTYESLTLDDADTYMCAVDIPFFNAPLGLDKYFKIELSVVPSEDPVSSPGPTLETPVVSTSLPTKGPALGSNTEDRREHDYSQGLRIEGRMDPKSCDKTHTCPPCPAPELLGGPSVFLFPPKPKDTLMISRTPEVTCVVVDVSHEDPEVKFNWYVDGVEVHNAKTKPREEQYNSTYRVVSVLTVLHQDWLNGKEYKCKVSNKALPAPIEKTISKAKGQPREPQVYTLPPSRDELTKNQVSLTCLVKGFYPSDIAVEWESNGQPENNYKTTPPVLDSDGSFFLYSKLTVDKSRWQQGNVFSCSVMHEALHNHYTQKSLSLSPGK

B1: anti-CD300LB antibody CD-12 (antibody, V domains shown)
VH: QIQLVQSGPELKKPGETVKISCKASGYTFTDYSMHWVRQAPGKGLKWMAWINTETGEATHADDFKGRFDFSLDTSASTAYLQIKNLKNEDTGIYFCVCYGSSYGMDYWGQGTSVTVSS
VL: DIVLTQSPASLPVSLGQRATISCRASKSVRTSGASYMHWYQQKPGQPPKLLIYLASNLKSGVPTRFSGSGSGTDFTLNIHPVEEEDAATYYCQHNREVPPTFGGGTKLEIK
For the molecule B1, the “SPR binding (control subtracted)” value was 4.2 with murine CD300A-Fc, -0.6 with murine CD300E-Fc and 43.2 in the test with murine CD300LB-Fc. In addition, the “Luminescence in BaF/3” value in test [1] amounted to 22800. Also, in test [2], the gMFI worked out at 413 gMFI.

B2: anti-CD300LB antibody CD-13 (antibody, V domains shown)
VH: QIQLVQSGPELKKPGETVKISCKASGYTFTDYSMHWVKQAPGKGFKWMAWINTETGAPTHADDFRGRFAFSLETSASTAFLQISNLKTEDTATYFCVTFGKSYGMNYWGQGTSVTVSS
VL: DIVLTQSPASLSVSLGQRATISCRASKSVGSSGSSYLHWYQQKPGQPPKLLIYLASNLESGVPARFSGSGSGTEFTLNIHPVEEEDAATYYCQHNAEVPPTFGGGTKLEIK
With B2, the entries for the “SPR binding (control subtracted)” value in the test with murine CD300A-Fc, in the test with murine CD300E-Fc and with murine CD300LB-Fc were 4.4, 4.5 and 82.4, respectively. Also, the gMFI in test [3] came to 1190 gMFI. Also, the “Luminescence in BaF/3” value in test [1] is 22400.

B3: anti-CD300LB antibody CD-10 (antibody, V domains shown)
VH: QVQLQQSGPELVRPGVSVKISCKGSGYTFTDYAMHWVKQSHVRSREWIGVIGTYNGHTNYNQKFKGKATMTVDKSSSTAYLELARLTSEDSAIYYCARSGSYYYSMDYWGQGTSVTVSS
VL: QIVLTQSPAIMSASPGEKVTMTCSASSSVNYMHWYQQKSGTSPKRWIYDTSKLSSGVPARFSGSGSGTSYSLTISTMEAEDAATYYCQQWSSNPPMTFGGGTKLEIK
In the case of B3, the “SPR binding (control subtracted)” value in the test with murine CD300A-Fc is -2.5; with murine CD300E-Fc it was 11.3; with murine CD300LB-Fc, 370. The values for the gMFI in test [3] and in test [2] were 284 gMFI and 192 gMFI, respectively.

B4: anti-CD300LB antibody CD-14 (antibody, V domains shown)
VH: QIQLVQSGPELKKPGETVKISCKASGYTFTDYSLHWVKQTPEKNLKWMAWINTETGAPTYADDFKGRFAFSLETSSNTAYLLINNLKNEDTATYFCALTMVNYWGQGTTLTVSS
VL: DIVMTQSQKFMSTSVGDRVSVTCKASQNVGIRVAWHQQKPGQSPKTLIYSTSYRYSGVPDRFTGSGSGTEFILTISNVQSEDLAEYFCQQYNSYPYTFGGGTKLEIK
Take B4: the “SPR binding (control subtracted)” value in the test with murine CD300A-Fc was found to be 2.7; with murine CD300E-Fc it was 3.6; in the test with murine CD300LB-Fc it was 29. In addition, the gMFI in test [3] amounted to 950 gMFI. The “Luminescence in BaF/3” value in test [1] stood at 19700.

B5: anti-CD300LB antibody CD-05 (antibody, V domains shown)
VH: QVQLVQSGAEVKKPGASVKVSCKASGYTFSRYYINWVRQAPGQGLEWMGWINPNSGGTNYAQKFQGRVTMTRDTSTSTVYMELSSLRSEDTAVYYCTTDQLRFGKTGPYYGMDVWGQGTTVTVSS
VL: DIQMTQSPSSLSASVGDRVTITCRASQNIGTYLNWYQQKPGKAPKLLIYAASSLQSGVPSRFSGSGSGTDFTLTISSLQPEDFATYYCQQSYSDTLTFGGGTKVEIK
On to B5, for which, in test [3], the gMFI amounted to 172 gMFI.

B6: anti-CD300LB antibody CD-06 (antibody, V domains shown)
VH: QVQLVQSGAEVKKPGASVKVSCKASGYTFTTYAVHWVRQAPGQGLEWMGIVNPNSGGTNYAQKFQGRVTMTRDTSTSTVYMELSSLRSEDTAVYYCARDIVPMNNFYNYYYGMDVWGQGTTVTVSS
VL: DIQMTQSPSSLSASVGDRVTITCRASQSISSYLNWYQQKPGKAPKLLIYATSTLQSGVPSRFSGSGSGTDFTLTISSLQPEDFATYYCQQSYRIPYTFGQGTKVEIK
Consider B6, for which the gMFI in test [3] is -48.7 gMFI.

B7: anti-CD300LB antibody CD-02 (antibody, V domains shown)
VH: QVQLQQPGAELVRPGSSVKLSCQASGYTFTNYWMHWVRQRPIQGLEWIGNIDPSDSETHYNQKFKDRATLTVDKSSSTAYMQLSSLTSEDSAVYYCARSGVYDDEGGDYWGQGTTLTVSS
VL: ENVLTQSPAIMSASPGEKVTMTCSASSSVSYIHWYQQKSSTSPKLWIYDTSKLASGVPGRFSGSGSGNSYSLTISSMETEDVATYYCFQGSGYPLTFGAGTKLELK
Regarding B7, the gMFI in test [3] was determined as 23 gMFI.

B8: anti-CD300LB antibody CD-01 (antibody, V domains shown)
VH: RVQLQQSGAELVRPGASVTLSCKASGFTFTDFEMHWVKKTPVHGLEWIGAIDPESGNTAYNQKFRGKATLTADKSSSTAYMELRYLTSEDSAVYYCTPLISGADYWGQGTTLTVSS
VL: DVVMTQSPLSLPVSLGDQASISCRSSQSLVHSDGNTYLYWYLQKPGQSPKLLIYKVSNRFSGVPDRFSGSGSGTDFTFKISRVGAEDLGVYFCSQSTHVPWTFGGGTKLEII
Regarding B8, the gMFI in test [3] was 860 gMFI.

B9: anti-CD300LB antibody CD-11 (antibody, V domains shown)
VH: QIQLVQSGPEVKKPGETVKISCKASGYTLTDYSMHWVMQTPGTGLKWMAWMNTETGEPTYADDFKGRFAFSLETSAGTAYLQIDNLKNEDTATYFCATYGKSYGMKYWGQGTSVTVSS
VL: DIVLTQSPPSLAVSLGQRATISCRATKSVSPYLHWYQQTPGQPPKLLIYLASNLDSGVPARFSGSGSGTDFTLNIHPVEEEDAATYYCQHNKELPPTFGGGTRLEIK
For B9, the “SPR binding (control subtracted)” value was -2.1 in the test with murine CD300A-Fc, 7.4 with murine CD300E-Fc and 87.7 with murine CD300LB-Fc. The gMFI worked out at 320 gMFI in test [3] and 349 gMFI in test [2]. In addition, the “Luminescence in BaF/3” value in test [1] came to 22400.
